Assay results: article PMC6551489, “Structural insights into interactions between viral suppressor of RNA silencing protein p19 mutants and small RNAs” (FEBS Open Bio, 2019)
Substitutions are numbered along the chain they refer to. In names and notes the source's numbering stands.

T1: CIRV p19-WT (Carnation Italian ringspot virus, UniProt Q66104 1-172)
T1 sequence: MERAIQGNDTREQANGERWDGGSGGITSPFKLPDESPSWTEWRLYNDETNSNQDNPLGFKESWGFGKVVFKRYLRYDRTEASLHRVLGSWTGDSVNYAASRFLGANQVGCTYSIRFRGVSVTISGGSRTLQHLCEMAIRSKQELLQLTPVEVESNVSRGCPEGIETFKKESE

B1: wild-type p19 protein from the Carnation Italian ringspot virus (natural protein)
chain: T1 sequence
notes: p19 viral suppressor of RNA silencing, Carnation Italian ringspot virus (CIRV), full-length construct, codon-optimized for E. coli, in pHis-parallel 2; Crystallised in complex with GL2 siRNA duplex; also called p19-WT; CIRV p19; source: E. coli BL21 DE3, purified (Nickel resin, TEV cleavage, size-exclusion chromatography); not shown: His6, N-terminal, cleaved
B2: p19-T111S mutant of the Carnation Italian ringspot virus p19 protein (natural protein, UniProt Q66104 1-172, looked up)
chain: T1 sequence with T111S
notes: Crystallised in complex with GL2 siRNA duplex; also called S111; source: E. coli BL21 DE3, purified (Nickel resin, TEV cleavage, size-exclusion chromatography); not shown: His6, N-terminal, cleaved
B3: p19-T111H mutant of the Carnation Italian ringspot virus p19 protein (natural protein, UniProt Q66104 1-172, looked up)
chain: T1 sequence with T111H
notes: Crystallised in complex with GL2 siRNA duplex; also called H111; source: E. coli BL21 DE3, purified (Nickel resin, TEV cleavage, size-exclusion chromatography); not shown: His6, N-terminal, cleaved
B4: GL2 siRNA duplex (dsRNA)
RNA 1: CGUACGCGGAAUACUUCGAUU
RNA 2: UCGAAGUAUUCCGCGUACGUU
modifications: 5' phosphorylated strands; text says deoxythymidine 2-nt overhangs, but printed as UU

Key:
[1] = molecular target: the molecule itself; test: crystal structure; p19 homodimer in complex with GL2 siRNA duplex; hanging drop vapour diffusion at 4 °C, 3-12% PEG 1500, 100 mM sodium acetate pH 4.6, 10-40 mM MgCl2; space group P1
[2] = molecular target: T1, CIRV p19-WT; test: X-ray crystallography; 2.2 A; Protein in 20 mM Tris pH 7.4, 150 mM NaCl, 1 mM TCEP before crystallization; crystallization conditions not in the material; conditions: protein: recombinant; tags: N-terminal His6 removed with TEV protease; chain copies: 2; 19 bp, 3' overhang 2 nt on both strands

Binder | binding result [1] | binding result [2]
B1 | binds | 
B2 | binds | 
B3 | binds | 
B4 |  | binds
